Measurements: US20220411491A1 (Hoffmann-La Roche, published 2022)

Legend:
human GPRC5D [1] = target: T1, human GPRC5D (human, UniProt Q9NZD1 1-345); test: cell-based or functional assay
human GPRC5D [2] = target: T1, human GPRC5D; test: flow cytometry on NCI-H929 cells expressing human GPRC5D
Experimental: To measure the binding to GPRC5D, we performed a flow cytometry-based binding assay on reported multiple myeloma cell lines (Lombardi et al., Molecular characterization of human multiple myeloma cell lines by integrative genomics: insights into the biology of the disease; Genes Chromosomes Cancer. 2007 March; 46(3):226-38.). The cell line NCI-H929 (ATCC® CRL-9068) was cultured in RPMI 1640 with Glutamax medium (Gibco) supplemented with 10% FBS, 1× Penicillin/Streptomycin (Gibco), lx Sodium Pyruvate (Gibco) and 50 μM beta-mercaptoethanol (Gibco).
0.1 Mio cells per well of a 96-round-bottom-well plate were incubated with 150 nM to 15 fM (serial dilutions of 1:10) of the indicated GPRC5D IgG constructs 5E11g2 and 5F11g2 or no construct for 30 min at 4° C. […] After two final washing steps, flow cytometric acquisition was performed on a custom-designed BD Biosciences Fortessa and analyzed using BD Diva. EC50 values were calculated, using GraphPad Prism software. […] None of the antibodies reaches saturation in the assessed concentration range.

T1 sequence (Q9NZD1 whole entry): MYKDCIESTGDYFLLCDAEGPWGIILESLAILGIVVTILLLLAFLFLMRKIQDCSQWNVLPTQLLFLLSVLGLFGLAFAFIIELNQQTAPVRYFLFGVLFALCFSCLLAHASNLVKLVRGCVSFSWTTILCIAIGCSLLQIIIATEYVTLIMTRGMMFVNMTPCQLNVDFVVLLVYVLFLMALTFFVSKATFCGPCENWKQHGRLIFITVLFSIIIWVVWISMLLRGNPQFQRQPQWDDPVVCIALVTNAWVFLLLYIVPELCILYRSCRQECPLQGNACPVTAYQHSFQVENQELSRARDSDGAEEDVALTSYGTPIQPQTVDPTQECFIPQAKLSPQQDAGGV

- EC50 of GPRC5D-IgG induced tumor cell lysis (ADCC, LDH release), AMO-1 (human GPRC5D [1]): 0.405 nM
- EC50 of GPRC5D-IgG induced tumor cell lysis (ADCC, LDH release), NCI-H929 (human GPRC5D [1]): 0.084 nM
- EC50 (human GPRC5D [2]): ~69.5 nM
B1: 5E11g2 (antibody, human IgG1, kappa, V domains shown)
VH: ELQLEQSGGGLVQPGGSLTLSCAASGFTFSKYAMAWVRQAPTKGLEWVASISTGGVNTYYRDSVKARFTISRDNAKNTQYLQMDSLRSEDTATYYCATHTGDYFDYWGQGVMVTVSS
VL: DIVLTQSPALAVSPGQRATISCRASQSVSISGINLMNWYQQKPGQQPKLLIYHASILASGIPTRFSGSGSGTDFTLTIDPVQADDIATYYCQQTRESPLTFGSGTNLEIKR
notes: Glyco-engineered human IgG1 (GlycoMab technology); afucosylation degree 59.1%; also called BSH-5E11-G7 hu IgG1 G2
